Measured values reported in the supplement of paper PMC9876800.

System: peptide library, one residue held at a place counted from the S/T acceptor
Test: relative phosphorylation of the sub-library (ratio to the mean residue at this position); higher = residue favoured
Summary of the method: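 Purified recombinant kinases were reacted in 384-well plates with biotinylated degenerate peptide sub-libraries, each having one residue fixed at one position around a central Ser/Thr. The reaction mix contained 50 μM peptide plus 50 μM ATP spiked with γ-32P-ATP and ran for 90 min under kinase-specific conditions. Relative sub-library phosphorylation, taken from densitometry of phosphorimaged streptavidin membrane spots, is a ratio to the mean residue at that position.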

ALPK1, construct: aa1-474 and aa959-end, human, sequence (Q96QP1 1-474, looked up): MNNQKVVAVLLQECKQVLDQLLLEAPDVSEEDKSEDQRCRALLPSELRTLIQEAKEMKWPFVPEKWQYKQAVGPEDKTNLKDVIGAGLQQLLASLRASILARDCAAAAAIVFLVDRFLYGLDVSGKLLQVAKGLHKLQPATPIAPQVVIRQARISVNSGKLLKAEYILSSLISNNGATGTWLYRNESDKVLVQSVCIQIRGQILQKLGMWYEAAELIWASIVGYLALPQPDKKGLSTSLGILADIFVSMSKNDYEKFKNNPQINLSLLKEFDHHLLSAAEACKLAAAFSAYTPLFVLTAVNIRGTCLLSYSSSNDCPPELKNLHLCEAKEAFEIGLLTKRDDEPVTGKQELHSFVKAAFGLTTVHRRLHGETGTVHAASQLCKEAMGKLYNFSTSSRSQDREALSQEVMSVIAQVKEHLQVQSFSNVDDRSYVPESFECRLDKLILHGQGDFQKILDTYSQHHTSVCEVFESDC
AURKC, construct: Full length, human, sequence (Q9UQB9 whole entry, looked up): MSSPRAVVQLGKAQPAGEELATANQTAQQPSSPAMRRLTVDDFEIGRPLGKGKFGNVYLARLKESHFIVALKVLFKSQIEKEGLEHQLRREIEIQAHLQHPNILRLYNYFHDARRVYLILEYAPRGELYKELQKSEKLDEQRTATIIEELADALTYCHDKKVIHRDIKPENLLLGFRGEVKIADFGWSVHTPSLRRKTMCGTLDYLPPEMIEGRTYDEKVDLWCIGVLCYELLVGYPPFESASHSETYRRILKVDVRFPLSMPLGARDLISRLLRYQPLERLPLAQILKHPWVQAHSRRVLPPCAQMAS
BMP2K, construct: aa37-345, human, sequence (Q9NSY1 37-345, looked up): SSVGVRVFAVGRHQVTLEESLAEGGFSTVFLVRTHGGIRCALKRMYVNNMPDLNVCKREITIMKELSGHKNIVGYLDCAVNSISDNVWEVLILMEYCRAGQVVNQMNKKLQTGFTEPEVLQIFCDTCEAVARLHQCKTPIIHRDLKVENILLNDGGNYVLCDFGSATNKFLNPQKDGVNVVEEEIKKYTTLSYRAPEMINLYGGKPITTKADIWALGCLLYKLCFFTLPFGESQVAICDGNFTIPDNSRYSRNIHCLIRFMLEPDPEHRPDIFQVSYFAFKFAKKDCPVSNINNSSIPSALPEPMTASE

ALPK1, construct: aa1-474 and aa959-end, human (from UniProt Q96QP1)
relative phosphorylation
Conditions	at +1	at +2	at +3	at +4	at -1	at -2	at -3	at -4	at -5
A fixed	0.392	0.063	0.503	1.02	0.957	1.29	0.868	0.65	0.43
D fixed	0.704	0.889	1.31	1.21	2.26	1.87	2.74	2	1.61
E fixed	3.35	2.03	1.22	1.27	1.9	0.573	1.83	1.77	1.83
F fixed	0.991	1.09	1.36	1.05	0.862	0.626	0.757	1.02	0.92
G fixed	0.404	0.704	0.365	0.933	0.798	0.731	0.687	0.798	0.812
H fixed	1.15	1.07	1	1.37	0.779	0.466	1.21	1.24	0.763
I fixed	1.27	1.14	0.752	0.378	1.16	1.02	0.608	0.848	1.02
K fixed	0.774	1.49	1.08	1.09	1.13	0.599	0.905	1.31	0.94
L fixed	0.474	1.11	1.09	0.718	0.704	1.29	0.392	0.763	0.67
M fixed	1.63	1.38	1.49	0.671	0.979	1.13	0.9	0.651	1.14
N fixed	0.75	1.19	0.97	1.36	0.572	0.718	1.11	0.874	1.08
P fixed	0.39	1.01	0.781	1.16	0.805	1.54	0.952	1.02	0.971
Q fixed	1.01	0.617	0.852	0.914	0.933	1.31	0.826	0.758	1.16
R fixed	1.23	0.649	0.935	0.774	0.731	0.797	1.02	1.09	1.28
V fixed	0.557	1.08	1.06	0.914	0.569	1.09	0.694	0.547	0.996
W fixed	0.811	1.01	1.06	1.1	1.04	0.771	0.557	0.92	0.613
Y fixed	1.11	0.478	1.17	1.06	0.826	1.18	0.944	0.741	0.762
pThr fixed	0.485	1.34	1.32	1.94	1.71	1.9	2.27	1.42	1.5
pTyr fixed	1.74	1.33	1.73	2.97	9.01	0.489	1.53	1.85	1.83

AURKC, construct: Full length, human (from UniProt Q9UQB9)
relative phosphorylation
Conditions	at +1	at +2	at +3	at +4	at -1	at -2	at -3	at -4	at -5
A fixed	1.01	1.38	1.08	0.973	0.816	0.333	0.832	1.25	1.46
D fixed	0.814	0.611	0.589	0.957	0.459	0.179	0.421	0.58	0.651
E fixed	0.755	0.417	0.466	0.681	0.394	0.167	0.36	0.562	0.554
F fixed	1.06	0.746	0.893	0.763	0.505	0.206	0.451	0.634	0.678
G fixed	1.37	2.03	1.6	1.25	0.672	0.399	1.06	1.33	1.63
H fixed	1.06	1.66	1.43	1.1	0.974	0.399	1.1	0.955	1.06
I fixed	0.852	0.592	0.605	0.684	0.406	0.25	0.402	0.623	0.63
K fixed	0.89	0.853	1.13	1.23	2.57	2.63	2.51	2.06	2.15
L fixed	1.15	0.694	0.863	0.792	0.811	0.251	0.392	0.601	0.632
M fixed	1.57	0.705	0.719	0.803	0.727	0.248	0.52	0.741	0.664
N fixed	1.29	1.23	1.25	1.2	0.73	0.304	0.919	0.856	1.05
P fixed	0.329	1.5	1.78	1.68	1.09	0.372	1.23	1.72	1.25
Q fixed	1.16	0.975	1.03	1.35	1.09	0.529	0.803	0.96	0.767
R fixed	1	0.962	1.08	1.13	3.72	10	4.34	2.18	1.47
V fixed	0.669	0.686	0.625	0.901	0.495	0.213	0.432	0.59	0.804
W fixed	1.08	1.03	0.961	0.859	0.526	0.233	0.674	0.69	0.852
Y fixed	0.931	0.928	0.906	0.647	1.01	0.25	0.55	0.673	0.719
pThr fixed	1.1	0.657	0.676	1.06	0.334	0.342	0.612	0.86	0.713
pTyr fixed	0.648	0.502	0.631	0.801	0.398	0.209	0.52	0.629	0.535

BMP2K, construct: aa37-345, human (from UniProt Q9NSY1)
relative phosphorylation
Conditions	at +1	at +2	at +3	at +4	at -1	at -2	at -3	at -4	at -5
A fixed	0.537	1.05	0.882	0.9	0.668	0.84	1.54	1.11	0.639
D fixed	0.361	0.974	0.763	0.733	0.467	1.22	0.575	0.621	0.453
E fixed	0.338	0.938	0.68	0.806	0.428	0.942	0.684	0.871	0.45
F fixed	0.379	0.866	0.81	0.94	1.26	0.754	0.916	0.963	0.863
G fixed	10.2	0.959	1.4	0.987	0.76	0.579	0.812	1.04	0.565
H fixed	0.392	1.08	1.21	0.989	1.35	1	0.815	0.95	0.739
I fixed	0.351	0.716	0.716	0.769	0.852	0.713	1.26	1	1.92
K fixed	0.435	0.966	1.2	1.39	1.76	0.993	0.926	1.31	0.594
L fixed	0.349	0.699	0.841	0.801	1.17	0.96	0.901	1.15	1.39
M fixed	0.368	0.842	0.765	0.847	1.18	1.91	1.46	1.12	1.24
N fixed	0.46	1.62	1.28	1.06	0.717	1.17	0.843	0.845	0.61
P fixed	0.674	0.802	1.01	0.988	0.846	0.485	1.34	0.868	1.13
Q fixed	0.384	1.22	1.04	1.14	0.818	2.26	1.02	1.08	1.02
R fixed	0.605	1.37	1.51	1.54	1.36	1	1.03	1.29	1.55
V fixed	0.358	0.87	0.929	0.753	0.806	0.64	1.17	0.987	1.32
W fixed	0.431	1.06	0.963	1.26	0.984	0.676	0.832	0.81	0.794
Y fixed	0.414	0.964	1	1.1	1.58	0.872	0.897	0.977	1.73
pThr fixed	0.4	0.715	0.663	0.527	0.427	0.528	0.634	0.638	0.583
pTyr fixed	0.357	0.841	0.698	0.572	0.527	0.928	0.647	0.72	1.19
